According to patent US20180201654A1 (UNIVERSITY OF SOUTHERN CALIFORNIA, published 2018):

Legend:
[1] = biological target: T1, HAUSP (Herpes virus-associated ubiquitin-specific protease), full length (human, UniProt Q93009 1-1102); assay: co-immunoprecipitation from transfected 293T cells, IP: V5, IB: Flag
T1 construct: also called USP7; Flag-HAUSP

[2] = biological target: T1, HAUSP (Herpes virus-associated …); assay: GST pulldown from transfected 293T cells, IB: Flag
[3] = biological target: T1, HAUSP (Herpes virus-associated …); assay: co-immunoprecipitation from transfected 293T cells, IP: V5, IB: Flag; remark: listed apart in the source
[4] = biological target: T2, HAUSP TRAF domain (HAUSP^62-205) (human, UniProt Q93009 62-205); assay: ITC, titration against the HAUSP TRAF domain, 20 C
T2 construct: also called TRAF-like domain of HAUSP
T2 sequence (Q93009 62-205): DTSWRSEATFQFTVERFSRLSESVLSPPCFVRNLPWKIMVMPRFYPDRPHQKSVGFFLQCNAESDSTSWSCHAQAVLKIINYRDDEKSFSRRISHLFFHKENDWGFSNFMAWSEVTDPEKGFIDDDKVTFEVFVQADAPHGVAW

[5] = biological target: T1, HAUSP (Herpes virus-associated …); assay: GST pulldown from transfected cells, immunoblot with anti-HAUSP antibody

T1 sequence (Q93009 whole entry): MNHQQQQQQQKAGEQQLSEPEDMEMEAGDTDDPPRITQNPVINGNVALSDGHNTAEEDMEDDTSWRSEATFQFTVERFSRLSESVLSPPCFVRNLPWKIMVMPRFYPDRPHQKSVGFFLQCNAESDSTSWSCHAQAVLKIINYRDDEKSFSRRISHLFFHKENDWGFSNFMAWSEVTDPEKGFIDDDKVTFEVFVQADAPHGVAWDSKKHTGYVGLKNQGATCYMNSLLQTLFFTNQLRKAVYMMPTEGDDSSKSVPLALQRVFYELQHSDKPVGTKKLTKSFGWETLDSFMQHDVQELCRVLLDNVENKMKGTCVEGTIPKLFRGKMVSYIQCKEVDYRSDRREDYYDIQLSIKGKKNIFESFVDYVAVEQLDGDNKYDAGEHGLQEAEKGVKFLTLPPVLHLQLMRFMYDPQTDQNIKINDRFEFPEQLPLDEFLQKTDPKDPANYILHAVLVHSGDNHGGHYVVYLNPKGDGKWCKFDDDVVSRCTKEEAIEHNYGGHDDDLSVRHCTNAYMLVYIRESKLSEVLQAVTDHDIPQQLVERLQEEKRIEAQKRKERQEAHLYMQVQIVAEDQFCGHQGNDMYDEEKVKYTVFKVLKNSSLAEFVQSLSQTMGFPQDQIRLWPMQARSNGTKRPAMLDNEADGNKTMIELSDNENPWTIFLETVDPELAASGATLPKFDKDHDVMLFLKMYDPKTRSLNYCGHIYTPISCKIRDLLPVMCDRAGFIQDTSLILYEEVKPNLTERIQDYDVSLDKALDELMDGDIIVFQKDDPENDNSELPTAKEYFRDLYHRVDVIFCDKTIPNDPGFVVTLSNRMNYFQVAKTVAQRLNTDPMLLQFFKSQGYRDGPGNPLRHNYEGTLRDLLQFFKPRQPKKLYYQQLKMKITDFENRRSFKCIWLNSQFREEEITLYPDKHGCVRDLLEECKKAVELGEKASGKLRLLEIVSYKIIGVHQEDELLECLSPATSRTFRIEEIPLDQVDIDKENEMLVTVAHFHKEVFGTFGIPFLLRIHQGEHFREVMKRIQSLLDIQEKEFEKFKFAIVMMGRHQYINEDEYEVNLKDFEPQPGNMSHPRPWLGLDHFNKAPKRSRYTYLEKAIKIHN

B1: V5/vIRF4 1-305 (other)
single chain: MPKAGGSEWATLWIIDALENNKFPYFSWFDRNNLLFAAPAPLPAGSDIPPGWYSVYHAFDEECDRVYGPSPVVGQTVYGRFGRLLRGTRRAVVRNDLRYSDTFGGSYVVWQLVRTPFKNCTYCYGAAYGPEKLQRFIQCLLSPPMQTTATRRSDTREQSYEEAGAAAPAPPKAPSGLRGRPRKSNRYYNVGDITTEQKAACSVWIPVNEGASTSGMGSSGTRQVTQASSFTWRVPGDPPAPSTLTGPSDPHSSGAGLPGTAPPKPQHETRLAGTVSGVSGVAQTPGDTGQLAPPMRDGSRLPSTS
[1]
  binding result: binds

B2: V5/vIRF4 1-454 (other)
single chain: MPKAGGSEWATLWIIDALENNKFPYFSWFDRNNLLFAAPAPLPAGSDIPPGWYSVYHAFDEECDRVYGPSPVVGQTVYGRFGRLLRGTRRAVVRNDLRYSDTFGGSYVVWQLVRTPFKNCTYCYGAAYGPEKLQRFIQCLLSPPMQTTATRRSDTREQSYEEAGAAAPAPPKAPSGLRGRPRKSNRYYNVGDITTEQKAACSVWIPVNEGASTSGMGSSGTRQVTQASSFTWRVPGDPPAPSTLTGPSDPHSSGAGLPGTAPPKPQHETRLAGTVSGVSGVAQTPGDTGQLAPPMRDGSRLPSTSPWIPACFPWGDLPVTGWWPQGASGLPEKVHPPTTGQFDPLSPRWTYTGIPSSQLNPAAPSWIPPHAQAGTFVGEFSQGAPLAPQGLLPQSGQCASAWLPRRETGAEGACGASTEGRAPQGAASERVYPFEPQPPSAPAPGYAKPSCYNW
[1]
  binding result: binds

B3: V5/vIRF4 1-605 (other)
single chain: MPKAGGSEWATLWIIDALENNKFPYFSWFDRNNLLFAAPAPLPAGSDIPPGWYSVYHAFDEECDRVYGPSPVVGQTVYGRFGRLLRGTRRAVVRNDLRYSDTFGGSYVVWQLVRTPFKNCTYCYGAAYGPEKLQRFIQCLLSPPMQTTATRRSDTREQSYEEAGAAAPAPPKAPSGLRGRPRKSNRYYNVGDITTEQKAACSVWIPVNEGASTSGMGSSGTRQVTQASSFTWRVPGDPPAPSTLTGPSDPHSSGAGLPGTAPPKPQHETRLAGTVSGVSGVAQTPGDTGQLAPPMRDGSRLPSTSPWIPACFPWGDLPVTGWWPQGASGLPEKVHPPTTGQFDPLSPRWTYTGIPSSQLNPAAPSWIPPHAQAGTFVGEFSQGAPLAPQGLLPQSGQCASAWLPRRETGAEGACGASTEGRAPQGAASERVYPFEPQPPSAPAPGYAKPSCYNWSPLAEPPATRPIRAPVWHPPVGHAVVPEVRTPLWIPWSSGGAPNQGLSHTQGGASATPSAGAPPTPEVAERQEPSSSGIPYVCQGDNMATGYRRVTTSSGALEVEIIDLTGDSDTPSTTVASTPLPVSGPRVFQPTVLYSAPEPAVNPEVS
[1]
  binding result: binds

B4: V5/vIRF4 1-758 (other)
single chain: MPKAGGSEWATLWIIDALENNKFPYFSWFDRNNLLFAAPAPLPAGSDIPPGWYSVYHAFDEECDRVYGPSPVVGQTVYGRFGRLLRGTRRAVVRNDLRYSDTFGGSYVVWQLVRTPFKNCTYCYGAAYGPEKLQRFIQCLLSPPMQTTATRRSDTREQSYEEAGAAAPAPPKAPSGLRGRPRKSNRYYNVGDITTEQKAACSVWIPVNEGASTSGMGSSGTRQVTQASSFTWRVPGDPPAPSTLTGPSDPHSSGAGLPGTAPPKPQHETRLAGTVSGVSGVAQTPGDTGQLAPPMRDGSRLPSTSPWIPACFPWGDLPVTGWWPQGASGLPEKVHPPTTGQFDPLSPRWTYTGIPSSQLNPAAPSWIPPHAQAGTFVGEFSQGAPLAPQGLLPQSGQCASAWLPRRETGAEGACGASTEGRAPQGAASERVYPFEPQPPSAPAPGYAKPSCYNWSPLAEPPATRPIRAPVWHPPVGHAVVPEVRTPLWIPWSSGGAPNQGLSHTQGGASATPSAGAPPTPEVAERQEPSSSGIPYVCQGDNMATGYRRVTTSSGALEVEIIDLTGDSDTPSTTVASTPLPVSGPRVFQPTVLYSAPEPAVNPEVSHLPTELERRECVCPGSGERPRVPLVSTYAGDRYAVGGYGPEQSLVPPPLGLPLTLSNLQGEDICTWEEGLGNILSELQEEPSSSTRQATDRRRPRSRSPHGRRTPVSHSGPEKPPSKMFFDPPDSQRVSFVVEIFVYGNLRGTLRREGDAGEA
[1]
  binding result: binds

B5: GST-vIRF4 153-305 (other)
single chain: SDTREQSYEEAGAAAPAPPKAPSGLRGRPRKSNRYYNVGDITTEQKAACSVWIPVNEGASTSGMGSSGTRQVTQASSFTWRVPGDPPAPSTLTGPSDPHSSGAGLPGTAPPKPQHETRLAGTVSGVSGVAQTPGDTGQLAPPMRDGSRLPSTS
[2]
  binding result: binds

B6: vIRF4 (Kaposi's-sarcoma-associated-herpesvirus vIRF4), full length wild type (other)
chain: MPKAGGSEWATLWIIDALENNKFPYFSWFDRNNLLFAAPAPLPAGSDIPPGWYSVYHAFDEECDRVYGPSPVVGQTVYGRFGRLLRGTRRAVVRNDLRYSDTFGGSYVVWQLVRTPFKNCTYCYGAAYGPEKLQRFIQCLLSPPMQTTATRRSDTREQSYEEAGAAAPAPPKAPSGLRGRPRKSNRYYNVGDITTEQKAACSVWIPVNEGASTSGMGSSGTRQVTQASSFTWRVPGDPPAPSTLTGPSDPHSSGAGLPGTAPPKPQHETRLAGTVSGVSGVAQTPGDTGQLAPPMRDGSRLPSTSPWIPACFPWGDLPVTGWWPQGASGLPEKVHPPTTGQFDPLSPRWTYTGIPSSQLNPAAPSWIPPHAQAGTFVGEFSQGAPLAPQGLLPQSGQCASAWLPRRETGAEGACGASTEGRAPQGAASERVYPFEPQPPSAPAPGYAKPSCYNWSPLAEPPATRPIRAPVWHPPVGHAVVPEVRTPLWIPWSSGGAPNQGLSHTQGGASATPSAGAPPTPEVAERQEPSSSGIPYVCQGDNMATGYRRVTTSSGALEVEIIDLTGDSDTPSTTVASTPLPVSGPRVFQPTVLYSAPEPAVNPEVSHLPTELERRECVCPGSGERPRVPLVSTYAGDRYAVGGYGPEQSLVPPPLGLPLTLSNLQGEDICTWEEGLGNILSELQEEPSSSTRQATDRRRPRSRSPHGRRTPVSHSGPEKPPSKMFFDPPDSQRVSFVVEIFVYGNLRGTLRREGDAGEAMLCSWPVGDTLGHLCQSFVPELLRIPRLTVPSPEQMEILNRVFEGLGHGFPIFCSMSGIYSRNATQVEGWWFGNPNSRYERILRSFSPRVPQQLFNTARYLATTAAIPQTPLSVNPVTCGTVFFGASPASTENFQNVPLTVKIFIGSIWDSLH
[3]
  binding result: binds

B7: GST-vIRF4 1-153 (other)
single chain: MPKAGGSEWATLWIIDALENNKFPYFSWFDRNNLLFAAPAPLPAGSDIPPGWYSVYHAFDEECDRVYGPSPVVGQTVYGRFGRLLRGTRRAVVRNDLRYSDTFGGSYVVWQLVRTPFKNCTYCYGAAYGPEKLQRFIQCLLSPPMQTTATRRS
[2]
  binding result: no binding

B8: vIRF4^153-216 (other)
chain: SDTREQSYEEAGAAAPAPPKAPSGLRGRPRKSNRYYNVGDITTEQKAACSVWIPVNEGASTSGM
[4]
  Ka: 1.84e+06 M⁻¹
  Kd: 540 nM
  TΔS: -7.35 kcal/mol
  n: 0.82
  ΔG: -8.41 kcal/mol
  ΔH: -15.8 kcal/mol

B9: GST-vIRF4^220-236 (other)
chain: GTRQVTQASSFTWRVPG
notes: not shown: GST tag of the pEBG-GST vector
[5]
  binding result: binds

B10: GST-vIRF4^202-256 (other)
chain: SVWIPVNEGASTSGMGSSGTRQVTQASSFTWRVPGDPPAPSTLTGPSDPHSSGAG
notes: as for B9
[5]
  binding result: binds
